In patent publication US20200306373A1 (Hoffmann-La Roche, published 2020):
Blank lines part the entries; values can stand above or below the binder they belong to.

Key:
murine ICOS [1] = molecular target: T1, murine ICOS (murine, UniProt Q9WVS0 21-200); test: cell-based or functional assay
T1 sequence: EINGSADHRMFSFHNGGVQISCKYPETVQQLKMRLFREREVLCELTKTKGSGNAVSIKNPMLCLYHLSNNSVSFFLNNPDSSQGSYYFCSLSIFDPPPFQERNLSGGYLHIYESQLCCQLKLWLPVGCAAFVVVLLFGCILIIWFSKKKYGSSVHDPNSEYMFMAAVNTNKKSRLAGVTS

murine FAP (mFAP) [2] = molecular target: T2, murine FAP (mFAP) (murine, UniProt P97321 1-761); test: flow cytometry on NIH/3T3-moFAP cl.34 cells
T2 construct: Expressed on 3T3-mFAP / NIH/3T3-moFAP cl.34 cells; also called mouse FAP; moFAP
Procedure: (§1) Briefly, adherent MKN45, NIH/3T3-moFAP or CHO-mICOS cells were detached using trypsin (Gibco, 25300-054), washed and 0.1 million cells were transferred into a 96-round bottom well-plate. […] Thereafter, cells were washed twice with cold PBS 0.1% BSA and further incubated for further 30 min at 4° C. with a labeled secondary antibody (PE-conjugated, #715-116-150 from Jackson Immuno Research Lab, diluted 1 to 50 in FACS buffer). Cells were washed with FACS buffer and the staining was fixed for 20 min at 4° C. in the dark, using 75 μl of 1% PFA in FACS buffer per well. Cells were washed twice with FACS Buffer and re-suspended in FACS Buffer for analysis.
(§2) Fluorescence was analyzed by FACS using a FACS Fortessa (Software FACS Diva). Binding curves and EC₅₀ values were obtained using GraphPadPrism6.

murine ICOS [3] = molecular target: T1, murine ICOS; test: flow cytometry on CHO cells expressing murine ICOS
Procedure: as §1, §2

murine FAP (mFAP) [4] = molecular target: T2, murine FAP (mFAP); test: flow cytometry on NIH/3T3-moFAP cells stably overexpressing murine FAP, PE secondary, axis % Binding to murine FAP
Procedure: as §1, §2

murine ICOS [5] = molecular target: T1, murine ICOS; test: flow cytometry on CHO cells stably overexpressing murine ICOS, PE secondary, axis % Binding to murine ICOS
Procedure: as §1, §2

human ICOS = molecular target: T3, human ICOS (human, UniProt Q9Y6W8 21-199); test: cell-based or functional assay
T3 sequence: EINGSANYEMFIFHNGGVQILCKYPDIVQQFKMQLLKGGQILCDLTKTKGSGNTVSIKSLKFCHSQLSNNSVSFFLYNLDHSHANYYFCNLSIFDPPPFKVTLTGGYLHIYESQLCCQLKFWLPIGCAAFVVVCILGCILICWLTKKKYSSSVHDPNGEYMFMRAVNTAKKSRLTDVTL

human CEA = molecular target: T4, human CEA (human, UniProt P06731 35-685); test: flow cytometry on MKN45 cells (human CEA), Alexa Fluor 647 anti-human Fc secondary, frequency of A647+ cells
T4 construct: Endogenous CEA on MKN45 human gastric adenocarcinoma cells; also called Carcinoembryonic antigen; CEACAM5
T4 sequence: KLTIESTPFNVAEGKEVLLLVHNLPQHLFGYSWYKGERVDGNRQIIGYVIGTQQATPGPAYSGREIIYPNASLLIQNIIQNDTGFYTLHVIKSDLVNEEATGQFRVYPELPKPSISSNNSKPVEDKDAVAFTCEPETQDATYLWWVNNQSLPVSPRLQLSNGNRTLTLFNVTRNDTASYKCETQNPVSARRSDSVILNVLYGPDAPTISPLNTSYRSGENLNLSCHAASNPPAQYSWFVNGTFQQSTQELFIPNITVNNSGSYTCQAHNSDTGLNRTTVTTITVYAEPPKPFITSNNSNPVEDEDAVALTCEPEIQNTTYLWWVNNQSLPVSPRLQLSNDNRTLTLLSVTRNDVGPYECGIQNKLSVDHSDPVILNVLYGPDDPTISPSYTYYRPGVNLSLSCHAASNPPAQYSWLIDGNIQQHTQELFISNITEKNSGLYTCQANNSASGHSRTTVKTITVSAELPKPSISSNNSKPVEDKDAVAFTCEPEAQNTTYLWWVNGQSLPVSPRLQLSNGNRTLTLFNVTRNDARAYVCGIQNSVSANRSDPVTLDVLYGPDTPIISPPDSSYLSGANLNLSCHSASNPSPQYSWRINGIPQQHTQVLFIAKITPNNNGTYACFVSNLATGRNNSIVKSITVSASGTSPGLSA
Procedure: Briefly, human PBMCs, isolated from either Buffy Coats or fresh blood from healthy human donors (as described in Example 5.1) were incubated in a humidified incubator at 37° C. for 48 hours in RPMI1640 medium including […] PHA-L (Roche, #11249738001) and 100 units/ml recombinant human IL-2 (“Proleukin”, Novartis) at a cell density of 1 million cells per ml.
At the day of the assay, pre-activated PBMCs cells were harvested, washed with PBS, and 0.2 million cells in FACS buffer (PBS with 0.1% BSA) were plated per well of a 96-round bottom-well plate. Likewise, adherent MKN45 tumor cells were detached using trypsin (Gibco, 25300-054), washed and 0.15 million cells were transferred into the 96-round bottom well-plate. […] Cells were washed with FACS buffer and the staining was fixed for 20 min at 4° C. in the dark, using 75 µl of 1% PFA in FACS buffer per well. Cells were washed again two times with FACS Buffer and re-suspended in FACS Buffer for analysis.
as §2

T2 sequence (P97321 whole entry): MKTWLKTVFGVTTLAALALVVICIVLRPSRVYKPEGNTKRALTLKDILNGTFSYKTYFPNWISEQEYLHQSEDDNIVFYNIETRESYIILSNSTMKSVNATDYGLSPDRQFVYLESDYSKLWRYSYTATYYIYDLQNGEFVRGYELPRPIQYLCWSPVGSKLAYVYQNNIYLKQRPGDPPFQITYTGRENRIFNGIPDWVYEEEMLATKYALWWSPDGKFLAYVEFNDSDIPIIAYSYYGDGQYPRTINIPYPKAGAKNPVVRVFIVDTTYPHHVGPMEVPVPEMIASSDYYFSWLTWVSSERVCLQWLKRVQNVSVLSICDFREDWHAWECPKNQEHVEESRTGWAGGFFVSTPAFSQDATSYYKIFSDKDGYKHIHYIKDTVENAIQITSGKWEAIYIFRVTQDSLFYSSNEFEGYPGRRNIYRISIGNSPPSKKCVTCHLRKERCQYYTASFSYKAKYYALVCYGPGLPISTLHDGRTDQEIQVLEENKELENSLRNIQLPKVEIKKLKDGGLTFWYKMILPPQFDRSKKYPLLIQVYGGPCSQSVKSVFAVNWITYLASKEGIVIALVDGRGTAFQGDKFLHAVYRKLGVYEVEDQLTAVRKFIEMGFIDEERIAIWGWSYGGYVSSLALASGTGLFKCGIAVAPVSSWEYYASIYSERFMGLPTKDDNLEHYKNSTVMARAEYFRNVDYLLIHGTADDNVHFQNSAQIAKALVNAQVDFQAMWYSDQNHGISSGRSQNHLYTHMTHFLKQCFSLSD

Fold increase vs TCB only at 3 nM CEA- or FAP-ICOS, % CD69^+CD4^+ (murine ICOS [1]): 1.2 fold
Fold increase vs TCB only at 3 nM CEA- or FAP-ICOS, % CD69^+CD8^+ (murine ICOS [1]): 1.9 fold
Fold increase vs TCB only at 75 nM CEA- or FAP-ICOS, % CD69^+CD4^+ (murine ICOS [1]): 1.2 fold
Fold increase vs TCB only at 75 nM CEA- or FAP-ICOS, % CD69^+CD8^+ (murine ICOS [1]): 1.9 fold
EC50 (murine FAP (mFAP) [2]): 0.142 nM
EC50 (murine ICOS [3]): 17.1 nM
EC50 (read off the curve) (murine FAP (mFAP) [4]): ~100 pM
B1: ICOS(16E09)-FAP(28H1) 1+1, FAP-targeted anti-murine ICOS_1+1, mIgG1 DAPG, monovalent murine ICOS (16E09), monovalent FAP (28H1) (bispecific antibody)
heavy 1: EVQLVQSGAEVKKPGESLKISCKGSGYSFTSYWIGWVRQMPGKGLEWMGIIYPGDSDTRYSPSFQGQVTISADKSISTAYLQWSSLKASDTAMYYCARSSGPYGLYLDYWGQGTLVTVSSAKTTPPSVYPLAPGSAAQTNSMVTLGCLVEGYFPEPVTVTWNSGSLSSGVHTFPAVLQSDLYTLSSSVTVPSSTWPSQTVTCNVAHPASSTKVDEKIVPRDCGCKPCICTVPEVSSVFIFPPKPKDVLTITLTPKVTCVVVAISKDDPEVQFSWFVDDVEVHTAQTKPREEQINSTFRSVSELPIMHQDWLNGKEFKCRVNSAAFGAPIEKTISKTKGRPKAPQVYTIPPPKEQMAKDKVSLTCMITNFFPEDITVEWQWNGQPAENYDNTQPIMDTDGSYFVYSDLNVQKSNWEAGNTFTCSVLHEGLHNHHTEKSLSHSP
heavy 2: EIVLTQSPGTLSLSPGERATLSCRASQSVSRSYLAWYQQKPGQAPRLLIIGASTRATGIPDRFSGSGSGTDFTLTISRLEPEDFAVYYCQQGQVIPPTFGQGTKVEIKSSAKTTPPSVYPLAPGSAAQTNSMVTLGCLVKGYFPEPVTVTWNSGSLSSGVHTFPAVLQSDLYTLSSSVTVPSSTWPSQTVTCNVAHPASSTKVDKKIVPRDCGCKPCICTVPEVSSVFIFPPKPKDVLTITLTPKVTCVVVAISKDDPEVQFSWFVDDVEVHTAQTKPREEQINSTFRSVSELPIMHQDWLNGKEFKCRVNSAAFGAPIEKTISKTKGRPKAPQVYTIPPPKKQMAKDKVSLTCMITNFFPEDITVEWQWNGQPAENYKNTQPIMKTDGSYFVYSKLNVQKSNWEAGNTFTCSVLHEGLHNHHTEKSLSHSP
light 1: not shown
light 2: EVQLLESGGGLVQPGGSLRLSCAASGFTFSSHAMSWVRQAPGKGLEWVSAIWASGEQYYADSVKGRFTISRDNSKNTLYLQMNSLRAEDTAVYYCAKGWLGNFDYWGQGTLVTVSSASDAAPTVSIFPPSSEQLTSGGASVVCFLNNFYPKDINVKWKIDGSERQNGVLNSWTDQDSKDSTYSMSSTLTLTKDEYERHNSYTCEATHKTSTSPIVKSFNRNEC
notes: Murine IgG1 DAPG DDKK; also called ICOS(16E09)-FAP(28H1) 1 + 1 muIgG1 DAPG

Fold increase vs TCB only at 3 nM CEA- or FAP-ICOS, % CD69^+CD4^+ (murine ICOS [1]): 1.1 fold
Fold increase vs TCB only at 3 nM CEA- or FAP-ICOS, % CD69^+CD8^+ (murine ICOS [1]): 2.3 fold
Fold increase vs TCB only at 75 nM CEA- or FAP-ICOS, % CD69^+CD4^+ (murine ICOS [1]): 1.1 fold
Fold increase vs TCB only at 75 nM CEA- or FAP-ICOS, % CD69^+CD8^+ (murine ICOS [1]): 2.4 fold
EC50 (murine FAP (mFAP) [2]): 2.86 nM
EC50 (murine ICOS [3]): 2.88 nM
EC50 (read off the curve) (murine ICOS [5]): ~3000 pM
EC50 (read off the curve) (murine FAP (mFAP) [4]): ~3000 pM
B2: ICOS(16E09)-FAP(28H1) 2+1, FAP-targeted anti-murine ICOS_2+1, mIgG1 DAPG, bivalent murine ICOS (16E09), monovalent FAP (28H1) (bispecific antibody)
heavy 1: EVQLVQSGAEVKKPGESLKISCKGSGYSFTSYWIGWVRQMPGKGLEWMGIIYPGDSDTRYSPSFQGQVTISADKSISTAYLQWSSLKASDTAMYYCARSSGPYGLYLDYWGQGTLVTVSSAKTTPPSVYPLAPGSAAQTNSMVTLGCLVKGYFPEPVTVTWNSGSLSSGVHTFPAVLQSDLYTLSSSVTVPSSTWPSQTVTCNVAHPASSTKVDKKIVPRDCGCKPCICTVPEVSSVFIFPPKPKDVLTITLTPKVTCVVVAISKDDPEVQFSWFVDDVEVHTAQTKPREEQINSTFRSVSELPIMHQDWLNGKEFKCRVNSAAFGAPIEKTISKTKGRPKAPQVYTIPPPKEQMAKDKVSLTCMITNFFPEDITVEWQWNGQPAENYDNTQPIMDTDGSYFVYSDLNVQKSNWEAGNTFTCSVLHEGLHNHHTEKSLSHSPGGGGGSGGGGSGGGGSGGGGSEIVLTQSPGTLSLSPGERATLSCRASQSVSRSYLAWYQQKPGQAPRLLIIGASTRATGIPDRFSGSGSGTDFTLTISRLEPEDFAVYYCQQGQVIPPTFGQGTKVEIK
heavy 2: EVQLVQSGAEVKKPGESLKISCKGSGYSFTSYWIGWVRQMPGKGLEWMGIIYPGDSDTRYSPSFQGQVTISADKSISTAYLQWSSLKASDTAMYYCARSSGPYGLYLDYWGQGTLVTVSSAKTTPPSVYPLAPGSAAQTNSMVTLGCLVKGYFPEPVTVTWNSGSLSSGVHTFPAVLQSDLYTLSSSVTVPSSTWPSQTVTCNVAHPASSTKVDKKIVPRDCGCKPCICTVPEVSSVFIFPPKPKDVLTITLTPKVTCVVVAISKDDPEVQFSWFVDDVEVHTAQTKPREEQINSTFRSVSELPIMHQDWLNGKEFKCRVNSAAFGAPIEKTISKTKGRPKAPQVYTIPPPKKQMAKDKVSLTCMITNFFPEDITVEWQWNGQPAENYKNTQPIMKTDGSYFVYSKLNVQKSNWEAGNTFTCSVLHEGLHNHHTEKSLSHSPGGGGGSGGGGSGGGGSGGGGSEVQLLESGGGLVQPGGSLRLSCAASGFTFSSHAMSWVRQAPGKGLEWVSAIWASGEQYYADSVKGRFTISRDNSKNTLYLQMNSLRAEDTAVYYCAKGWLGNFDYWGQGTLVTVSS
light: not shown
notes: Murine IgG1 DAPG DDKK; also called ICOS(16E09)-FAP(28H1) 2 + 1 muIgG1 DAPG

Fold increase vs TCB only at 200 pM CEA-ICOS (% CD69^+CD4^+), Donor 1 (D1) (human ICOS): 5.17 fold
Fold increase vs TCB only at 200 pM CEA-ICOS (% CD69^+CD4^+), Donor 2 (D2) (human ICOS): 2.86 fold
Fold increase vs TCB only at 1000 pM CEA-ICOS (% CD69^+CD4^+), Donor 1 (D1) (human ICOS): 5.52 fold
Fold increase vs TCB only at 1000 pM CEA-ICOS (% CD69^+CD4^+), Donor 2 (D2) (human ICOS): 1.99 fold
EC50 (read off the curve) (human CEA): ~500 pM
B3: ICOS(JMab136)-CEA(MEDI-565) 2+1, CEA-ICOS_2+1 huIgG1 P329G LALA, bivalent ICOS (JMAb136), monovalent CEA (MEDI-565) (bispecific antibody)
heavy 1: not shown
heavy 2: not shown
light: DIQMTQSPSSVSASVGDRVTITCRASQGISRLLAWYQQKPGKAPKLLIYVASSLQSGVPSRFSGSGSGTDFTLTISSLQPEDFATYYCQQANSFPWTFGQGTKVEIKRTVAAPSVFIFPPSDRKLKSGTASVVCLLNNFYPREAKVQWKVDNALQSGNSQESVTEQDSKDSTYSLSSTLTLSKADYEKHKVYACEVTHQGLSSPVTKSFNRGEC
notes: Human IgG1 P329G LALA, knob-into-hole; also called CEA(MEDI565)-ICOS(JMAb136)_2 + 1
